For assay [1], the target named is T1, cynomolgus monkey PSMA on HEK cells (cynomolgus).
T1 construct: whole, on cells; also called Cyno-PSMA HEK; PSMG5
As to the kind of experiment: flow cytometry, mammalian Fab supernatant on cyno-PSMA HEK cells (PSMG5), anti-human kappa-RPE. The source says:
(§1) (Mammalian Fab Supernatant Titration Curves for Anti-PSMA Phage Panning Hits vs Cyno PSMA HEK). […] In FIG. 24D, Mammalian-expressed supernatants were normalized for Fab expression via octet, and titrated against either human LNCAP, PSMG5 (Cyno-PSMA HEK), or PSMG9 (chimp-PSMA HEK) cells using flow cytometry. Geometric mean fluorescence intensity (GeoMFI) was plotted vs. Fab concertation using GraphPad Prizm.
(§2) A cell-based binding assay was designed to assess the binding capabilities of individual Fab-his fusions from E. coli supernatants to PSMA-expressing cells. Individual Fab clones were isolated from the round 3 output of all panning experiments following pIX excision. Fab clones were tested for binding to chimp and cyno PSMA expressing HEK cells, as well as to human PSMA on LNCaP cells. Briefly, PSMA expressing cells were aliquoted into a V-bottom plate (CoStar 3357) at a density of 200,000 per well and incubated with (100 μl) supernatants expressing Fab fragments for 1 hour on ice. […] Plates were read on a BD FACS Array flow cytometer. FACS data was analyzed in FlowJo software by live gating the healthy population of cells using forward scatter and side scatter, and then analyzing the cells within this gate for PE staining. Mean fluorescence intensity (MFI) was calculated and exported into Microsoft Excel. […]
(A flow cytometer gives signals particle by particle.)

For assay [2], the target named is T1, cynomolgus monkey PSMA on HEK cells. The description is as above.
Description: as §1, §2
The source holds these as a separate data set.

For assay [3], the target named is T2, human PSMA on cells (LNCaP) (human, UniProt Q04609 1-750).
T2 construct: whole, on cells; also called LNCaP cells
As to the kind of experiment: flow cytometry, mammalian Fab supernatant on LNCaP cells, anti-human kappa-RPE. Here is the method: (§3) Individual Fab clones were isolated from the round 3 output of all panning experiments following pIX excision. Fab clones were tested for binding to chimp and cyno PSMA expressing HEK cells, as well as to human PSMA on LNCaP cells. Briefly, PSMA expressing cells were aliquoted into a V-bottom plate (CoStar 3357) at a density of 200,000 per well and incubated with (100 μl) supernatants expressing Fab fragments for 1 hour on ice. Cells were washed twice with PBS containing 2% FBS, and stained with a mouse anti-human kappa-RPE antibody (Life Technologies cat #MH10514) for 1 hour on ice. Cells were washed twice with PBS containing 2% FBS and resuspended in […] of the same wash buffer. Plates were read on a BD FACS Array flow cytometer. FACS data was analyzed in FlowJo software by live gating the healthy population of cells using forward scatter and side scatter, and then analyzing the cells within this gate for PE staining. Mean fluorescence intensity (MFI) was calculated and exported into Microsoft Excel. […] Fabs were sequenced and moved forward for cloning into mammalian expression vector for rescreening. True positives were selected from the binding of mammalian cell expressed Fab supernatants to PSMA-expressing cell lines.
FIGS. 22A, 22B, 22C and 22D show the titration curves for anti-PSMA panning hits vs. LNCaP cells. […] Binding profiles among hits were compared across cell lines expressing different species of PSMA.

Assay [4] has as its target T3, chimpanzee PSMA on HEK cells (chimpanzee, UniProt H2Q3K5 1-750).
T3 construct: also called chimp-PSMA HEK; PSMG9
As to the kind of experiment: flow cytometry, mammalian Fab supernatant on chimp-PSMA HEK cells (PSMG9), anti-human kappa-RPE. Here is the method: as §3
(§4) FIGS. 22A, 22B, 22C and 22D show the titration curves for anti-PSMA panning hits vs. LNCaP cells. […]

The target in assay [5] is T4, Human CD33 full length (human, UniProt P20138 18-364). As to the kind of experiment: cell-based or functional assay.
Assay [6] deals with T4, Human CD33 full length. As to the kind of experiment: cell-based or functional assay. The source holds these as a separate data set.
A further assay concerns the target Cyno CD33 full length (cynomolgus monkey). Nature of the assay: cell-based or functional assay.
Another assay deals with Cyno CD3e (cynomolgus monkey, UniProt Q95LI5 22-198). As to the kind of experiment: cell-based or functional assay.
The target in assay [7] is human IL1RAP on NCI-H1975 cells (human). As to the kind of experiment: cell-based or functional assay.
Assay [8] deals with T5, human IL1RAP (interleukin-1 receptor accessory protein) on LAMA-84 cells (human). As to the kind of experiment: cell-based or functional assay.
Assay [9] concerns the target T5, human IL1RAP (interleukin-1 receptor …). As to the kind of experiment: cell-based or functional assay. The source holds these as a separate data set.
Assay [10] has as its target T3, chimpanzee PSMA on HEK cells. As to the kind of experiment: flow cytometry, mammalian Fab supernatant on chimp-PSMA HEK cells (PSMG9), anti-human kappa-RPE. The method, then:
as §3, §4
The source holds these as a separate data set.

Like-named read-outs stand apart in the source and are kept apart here.

T4 sequence (P20138 18-364 limits assumed): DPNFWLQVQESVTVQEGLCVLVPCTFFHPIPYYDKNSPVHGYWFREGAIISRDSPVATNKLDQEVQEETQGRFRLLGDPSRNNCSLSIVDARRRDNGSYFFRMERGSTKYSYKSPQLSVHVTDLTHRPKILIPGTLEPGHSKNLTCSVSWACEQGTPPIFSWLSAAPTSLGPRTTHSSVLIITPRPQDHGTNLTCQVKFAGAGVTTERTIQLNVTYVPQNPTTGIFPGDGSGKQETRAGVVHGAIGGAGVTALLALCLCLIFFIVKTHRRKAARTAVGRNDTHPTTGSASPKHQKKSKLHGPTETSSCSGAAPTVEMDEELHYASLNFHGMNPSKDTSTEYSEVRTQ
T3 sequence (H2Q3K5 entry or part of it limits assumed): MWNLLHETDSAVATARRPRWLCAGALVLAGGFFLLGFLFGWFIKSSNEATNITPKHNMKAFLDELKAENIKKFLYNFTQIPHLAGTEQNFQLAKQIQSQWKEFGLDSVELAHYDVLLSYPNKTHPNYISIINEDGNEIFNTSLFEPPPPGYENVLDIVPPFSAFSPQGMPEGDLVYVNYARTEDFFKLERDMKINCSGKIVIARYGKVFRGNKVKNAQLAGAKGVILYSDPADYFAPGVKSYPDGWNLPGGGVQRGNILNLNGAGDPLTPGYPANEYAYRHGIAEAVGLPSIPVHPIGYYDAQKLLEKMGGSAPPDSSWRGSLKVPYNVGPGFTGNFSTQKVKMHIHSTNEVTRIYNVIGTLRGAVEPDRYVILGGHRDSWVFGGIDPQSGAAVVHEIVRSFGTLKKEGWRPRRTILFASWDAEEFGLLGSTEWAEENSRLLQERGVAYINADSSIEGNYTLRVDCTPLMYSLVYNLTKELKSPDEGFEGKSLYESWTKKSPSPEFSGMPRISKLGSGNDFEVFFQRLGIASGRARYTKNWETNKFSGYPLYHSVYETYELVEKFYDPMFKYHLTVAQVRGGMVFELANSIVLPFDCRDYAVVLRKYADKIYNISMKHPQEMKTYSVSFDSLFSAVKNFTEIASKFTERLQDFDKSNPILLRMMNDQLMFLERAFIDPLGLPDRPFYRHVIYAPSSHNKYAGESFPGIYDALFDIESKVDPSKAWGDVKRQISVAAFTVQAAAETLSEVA
Sequence of Cyno CD3e (Q95LI5 22-198): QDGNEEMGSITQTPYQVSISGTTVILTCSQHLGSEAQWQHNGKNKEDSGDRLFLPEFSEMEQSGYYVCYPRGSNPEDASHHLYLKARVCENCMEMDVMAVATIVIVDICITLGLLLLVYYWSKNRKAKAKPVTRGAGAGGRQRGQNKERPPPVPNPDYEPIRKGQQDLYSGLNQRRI
T2 sequence (Q04609 whole entry): as the sequence (H2Q3K5 entry or part of it limits assumed) above, with L155S, H281R, Y475H, N613S, T647S, L660V, D727E, S733Y counted along it

B1: PSMM59 (Fab, V domains shown)
VH: EVQLVQSGAEVKKPGESLKISCKGSGYSFTSYWISWVRQMPGKGLEWMGIIYPGDSYTRYSPSFQGQVTISADKSISTAYLQWSSLKASDTAMYYCARDYEWELFDSRLDYWGQGTLVTVSS
VL: not shown
notes: Mammalian Fab supernatant; also called PSMB58
As for B1, the EC50 (read off the curve) (as a rule, the concentration that produces a half-maximal response) in assay [1] is ~0.2 µg/mL.

B2: PSMM85 (Fab, V domains shown)
VH: EVQLLESGGGLVQPGGSLRLSCAASGFTFDSDWMSWVRQAPGKGLEWVSAISGNGGSTEYADSVKGRFTISRDNSKNTLYLQMNSLRAEDTAVYYCARDPYYYYDGDSYYGMDVWGQGTLVTVSS
VL: not shown
notes: Mammalian Fab supernatant; also called PSMB84
Regarding B2, the “EC50 (read off the curve)” value in assay [2] was ~0.4 µg/mL.

B3: PSMM87 (Fab, V domains shown)
VH: QVQLVQSGAEVKKPGSSVKVSCKASGGTFKSYDISWVRQAPGQGLEWMGGIIPIEGTANYAQKFQGRVTITADESTSTAYMELSSLRSEDTAVYYCARDYPAGYGFDYWGQGTLVTVSS
VL: not shown
notes: Mammalian Fab supernatant; also called PSMB86
In the case of B3, the results for the “EC50 (read off the curve)” value in [3] and in assay [4] were ~0.2 µg/mL and ~0.4 µg/mL, respectively.

B4: C3CB189 (bispecific antibody, IgG4, V domains shown)
VH 1: EVQLVESGGGLVQPGRSLRLSCAASGFTFDDYAMHWVRQAPGKGLEWVSGIGWSGGSIVYADSVKGRFTISRDNAKNSLYLQMNSLRAEDTALYYCAKDSPYGDFFDYWGQGTLVTVSS
VL 1: DIVMTQSPDSLAVSLGERATINCKSSQTVFYSSNNKNYLAWYQQKPGQPPKLLISWASTRKSGVPDRFSGSGSGTDFTLTVSSLQAEDVAVYYCQHYYSTPYTFGQGTKLEIK
VH 2: QVQLQQSGPRLVRPSQTLSLTCAISGDSVFNNNAAWSWIRQSPSRGLEWLGRTYYRSKWLYDYAVSVKSRITVNPDTSRNQFTLQLNSVTPEDTALYYCARGYSSSFDYWGQGTLVTVSS
VL 2: QSALTQPASVSGSPGQSITISCTGTSSNIGTYKFVSWYQQHPDKAPKVLLYEVSKRPSGVSSRFSGSKSGNTASLTISGLQAEDQADYHCVSYAGSGTLLFGGGTKLTVL
Take B4: in the assay with Human CD33 full length [5], the “Primary AML Cell Killing EC50” value came to 578 pM. Further, in the assay with Human CD33 full length [6], the “CD33^+ CD14^+ Killing EC50” value is 1160 pM and the “MOLM13 Killing EC50” value was 168 pM. Moreover, the “CD33^+ CD14^+ Killing EC50” value with Cyno CD33 full length worked out at 3600 pM. Moreover, in the assay with Cyno CD3e, the “T cell activation EC50” value came to 20 pM.

B5: IC3B19 (bispecific antibody, human IgG4 S228P, kappa, F234A L235A)
heavy: not shown
light: DIQLTQSPSFLSASVGDRVTITCRASQGISSYLAWYQQKPGKAPKLLIYAASTLQSGVPSRFSGSGSGTEFTLTISSLQPEDFATYYCQQVNSYPLTFGGGTKVEIKRTVAAPSVFIFPPSDEQLKSGTASVVCLLNNFYPREAKVQWKVDNALQSGNSQESVTEQDSKDSTYSLSSTLTLSKADYEKHKVYACEVTHQGLSSPVTKSFNRGEC
VH: EVQLVESGGGLVQPGGSLRLSCAASGFTFNTYAMNWVRQAPGKGLEWVARIRSKYNNYATYYAASVKGRFTISRDDSKNSLYLQMNSLKTEDTAVYYCARHGNFGNSYVSWFAYWGQGTLVTVSS
VL: QTVVTQEPSLTVSPGGTVTLTCRSSTGAVTTSNYANWVQQKPGQAPRGLIGGTNKRAPGTPARFSGSLLGGKAALTLSGVQPEDEAEYYCALWYSNLWVFGGGTKLTVL
B5: in [7], the “cytotoxicity EC50, caspase 3/7 assay, NCI-H1975 cells with pan T cells” value turned out to be 18 pM.

B6: IC3B34 (bispecific antibody, human IgG4 S228P, kappa, F234A L235A)
heavy: not shown
light: B5 light
VH: B4 VH 2
VL: B4 VL 2
Turning to B6, the “cytotoxicity EC50, caspase 3/7 assay, NCI-H1975 cells with pan T cells” value in assay [7] was 57 pM.

B7: C3CB88 (bispecific antibody, IgG4, V domains shown)
VH 1: B4 VH 1
VL 1: B4 VL 1
VH 2: B5 VH
VL 2: B5 VL
Consider B7, for which the “Primary AML Cell Killing EC50” value with Human CD33 full length [5] was 672 pM. In the assay with Human CD33 full length [6], the “CD33^+ CD14^+ Killing EC50” value came out at 506 pM and the “MOLM13 Killing EC50” value stood at 671 pM. In the assay with Cyno CD33 full length, the “CD33^+ CD14^+ Killing EC50” value was 890 pM. In addition, the “T cell activation EC50” value with Cyno CD3e was 20 pM.

B8: IC3B34 (IAPB57×CD3B376) IL1RAP×CD3 bispecific antibody (bispecific antibody, human IgG4 S228P, kappa, lambda, F234A L235A)
heavy 1: not shown
light 1: B5 light
heavy 2: QVQLQQSGPRLVRPSQTLSLTCAISGDSVFNNNAAWSWIRQSPSRGLEWLGRTYYRSKWLYDYAVSVKSRITVNPDTSRNQFTLQLNSVTPEDTALYYCARGYSSSFDYWGQGTLVTVSSASTKGPSVFPLAPCSRSTSESTAALGCLVKDYFPEPVTVSWNSGALTSGVHTFPAVLQSSGLYSLSSVVTVPSSSLGTKTYTCNVDHKPSNTKVDKRVESKYGPPCPPCPAPEAAGGPSVFLFPPKPKDTLMISRTPEVTCVVVDVSQEDPEVQFNWYVDGVEVHNAKTKPREEQFNSTYRVVSVLTVLHQDWLNGKEYKCKVSNKGLPSSIEKTISKAKGQPREPQVYTLPPSQEEMTKNQVSLTCLVKGFYPSDIAVEWESNGQPENNYKTTPPVLDSDGSFLLYSKLTVDKSRWQEGNVFSCSVMHEALHNHYTQKSLSLSLGK
light 2: QSALTQPASVSGSPGQSITISCTGTSSNIGTYKFVSWYQQHPDKAPKVLLYEVSKRPSGVSSRFSGSKSGNTASLTISGLQAEDQADYHCVSYAGSGTLLFGGGTKLTVLGQPKAAPSVTLFPPSSEELQANKATLVCLISDFYPGAVTVAWKADSSPVKAGVETTTPSKQSNNKYAASSYLSLTPEQWKSHRSYSCQVTHEGSTVEKTVAPTECS
On to B8, for which the “Cytotoxicity EC50 (nM), LAMA-84 cell line, whole blood T cell cytotoxicity assay, 48 h” value in assay [8] is 2.76 nM. Also, the “T-cell Activation EC50 (nM) (CD25), LAMA-84 cell line, whole blood assay, 48 h” value in assay [9] came out at 7.83 nM.

B9: IC3B19 (IAPB57×CD3B219) IL1RAP×CD3 bispecific antibody (bispecific antibody, human IgG4 S228P, kappa, F234A L235A)
heavy: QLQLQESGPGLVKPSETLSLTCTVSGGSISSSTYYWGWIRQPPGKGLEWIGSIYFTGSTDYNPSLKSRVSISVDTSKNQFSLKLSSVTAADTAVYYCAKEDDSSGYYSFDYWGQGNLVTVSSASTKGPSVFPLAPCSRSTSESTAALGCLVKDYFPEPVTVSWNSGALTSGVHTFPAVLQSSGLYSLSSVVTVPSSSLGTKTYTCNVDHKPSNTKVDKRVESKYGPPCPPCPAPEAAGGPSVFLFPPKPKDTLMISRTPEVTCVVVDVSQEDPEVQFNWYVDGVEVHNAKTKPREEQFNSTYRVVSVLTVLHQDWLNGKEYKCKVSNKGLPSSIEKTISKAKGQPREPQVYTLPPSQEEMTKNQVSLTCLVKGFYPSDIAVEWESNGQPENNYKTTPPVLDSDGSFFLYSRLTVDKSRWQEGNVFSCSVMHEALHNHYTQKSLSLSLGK
light: B5 light
VH: B5 VH
VL: B5 VL
With B9, in [8], the “Cytotoxicity EC50 (nM), LAMA-84 cell line, whole blood T cell cytotoxicity assay, 48 h” value came to 2.1 nM. In addition, the “T-cell Activation EC50 (nM) (CD25), LAMA-84 cell line, whole blood assay, 48 h” value in [9] was determined as 4.24 nM.

B10: PSMM18 (Fab, V domains shown)
VH: EVQLVQSGAEVKKPGESLKISCKGSGYSFTSYWIGWVRQMPGKGLEWMGIIYPGDSDTRYSPSFQGQVTISADKSISTAYLQWSSLKASDTAMYYCARAYHYSKGLDYWGQGTLVTVSS
VL: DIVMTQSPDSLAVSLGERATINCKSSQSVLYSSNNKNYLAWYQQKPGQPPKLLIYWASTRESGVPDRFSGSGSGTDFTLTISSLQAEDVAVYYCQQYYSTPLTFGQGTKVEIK
notes: Mammalian Fab supernatant; also called PSMB18
Turning to B10, the binding result in [3] is reported as “binds”. Besides, the concentration giving a half-maximal response (EC50 (read off the curve)) in assay [10] was ~0.3 µg/mL.

The values above are taken from US20230322924A1 (Janssen / Centocor, published 2023).
